Patent publication US20200360469A1 (UNIVERSITY OF THE SCIENCES, published 2020)

Biological target: full-length (FL) BRAF^G469A, 6x-HIS/BRAF^G469A/FLAG (human, UniProt P15056 2-766)
Assay: cell-based or functional assay

Chain of full-length (FL) BRAF^G469A, 6x-HIS/BRAF^G469A/FLAG (P15056 2-766 G469A): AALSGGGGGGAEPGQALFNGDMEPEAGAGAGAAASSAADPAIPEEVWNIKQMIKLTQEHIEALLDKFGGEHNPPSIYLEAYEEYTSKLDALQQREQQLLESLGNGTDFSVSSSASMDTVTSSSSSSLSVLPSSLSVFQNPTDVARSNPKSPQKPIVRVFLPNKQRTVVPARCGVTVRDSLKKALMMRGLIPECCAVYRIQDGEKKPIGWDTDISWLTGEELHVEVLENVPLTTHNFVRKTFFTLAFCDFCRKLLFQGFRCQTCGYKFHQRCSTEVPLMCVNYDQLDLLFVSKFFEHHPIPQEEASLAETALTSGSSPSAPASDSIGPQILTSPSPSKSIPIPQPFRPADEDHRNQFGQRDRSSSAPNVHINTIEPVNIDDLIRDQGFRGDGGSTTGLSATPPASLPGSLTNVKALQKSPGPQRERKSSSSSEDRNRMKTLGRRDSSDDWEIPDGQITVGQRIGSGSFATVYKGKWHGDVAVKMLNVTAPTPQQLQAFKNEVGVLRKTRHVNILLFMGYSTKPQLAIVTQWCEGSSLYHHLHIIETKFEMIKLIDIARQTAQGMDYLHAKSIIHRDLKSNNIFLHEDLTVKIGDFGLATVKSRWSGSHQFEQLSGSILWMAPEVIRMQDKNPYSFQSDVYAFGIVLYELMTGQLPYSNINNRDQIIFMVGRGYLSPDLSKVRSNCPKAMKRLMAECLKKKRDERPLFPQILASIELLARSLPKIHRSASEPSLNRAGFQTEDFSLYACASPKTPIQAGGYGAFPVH

**Q.** With THHVNILLFM [null-braftide] as the binder, how does the “IC50, ELISA-based kinase assay (phosphorylation of kinase-dead MEK)” value read?
**A.** 2500 nM
